Numbered stars: 1 amine (or outer) side, 2 acyl side, 3 side chain; on linkers, the order of the positions; unused ones are H or OH. Bridge positions count the residues as written; N and C are the ends. Side chains are listed from the residue outwards. Ends that are not written are not given here. * marks the point of attachment. C20 diacid = O=C(O)CCCCCCCCCCCCCCCCCCC(=O)*; γGlu = O=C(O)[C@H](CCC(=O)[*:2])N[*:1]; AEEA = NCCOCCOCC(=O)O
T1: human calcitonin receptor (human, UniProt P30988 25-474)
T1 construct: whole, on cells; Assayed as cell membranes of BHK tk'ts 13 cells stably transfected with the human calcitonin receptor (Assay VII); also called hCTR; hCT
T1 sequence (looked up): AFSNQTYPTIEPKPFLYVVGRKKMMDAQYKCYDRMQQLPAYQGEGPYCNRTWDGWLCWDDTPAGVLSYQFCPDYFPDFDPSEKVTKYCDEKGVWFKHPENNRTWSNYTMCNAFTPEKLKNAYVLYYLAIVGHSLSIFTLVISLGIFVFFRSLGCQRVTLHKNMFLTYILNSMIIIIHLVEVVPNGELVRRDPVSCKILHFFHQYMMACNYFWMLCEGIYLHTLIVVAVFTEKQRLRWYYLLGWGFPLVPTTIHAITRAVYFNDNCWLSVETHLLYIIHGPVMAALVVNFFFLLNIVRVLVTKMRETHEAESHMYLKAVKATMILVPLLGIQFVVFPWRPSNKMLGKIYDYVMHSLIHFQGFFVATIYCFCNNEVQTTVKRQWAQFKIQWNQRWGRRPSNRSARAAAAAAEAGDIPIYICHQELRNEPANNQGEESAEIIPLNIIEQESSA

B1: N^ε1-[2-[2-[2-[[(4S)-4-carboxy-4-(19-carboxynonadecanoylamino)butanoyl]amino]ethoxy]ethoxy]acetyl]-[Ala14,Arg17,Pro21,Pro27,Pro31]-h-amylin (peptide)
peptide: K([AEEA-γGlu-C20 diacid])CNTATCATQRLAAFLRHSSPNFGAIPSSTPVGSNTY-NH2
modifications: disulfide 2-7; N-terminus assumed
SMILES: CC[C@H](C)[C@H](NC(=O)[C@H](C)NC(=O)CNC(=O)[C@H](Cc1ccccc1)NC(=O)[C@H](CC(N)=O)NC(=O)[C@@H]1CCCN1C(=O)[C@H](CO)NC(=O)[C@H](CO)NC(=O)[C@H](Cc1c[nH]cn1)NC(=O)[C@H](CCCNC(=N)N)NC(=O)[C@H](CC(C)C)NC(=O)[C@H](Cc1ccccc1)NC(=O)[C@H](C)NC(=O)[C@H](C)NC(=O)[C@H](CC(C)C)NC(=O)[C@H](CCCNC(=N)N)NC(=O)[C@H](CCC(N)=O)NC(=O)[C@@H](NC(=O)[C@H](C)NC(=O)[C@@H]1CSSC[C@H](NC(=O)[C@@H](N)CCCCNC(=O)COCCOCCNC(=O)CC[C@H](NC(=O)CCCCCCCCCCCCCCCCCCC(=O)O)C(=O)O)C(=O)N[C@@H](CC(N)=O)C(=O)N[C@@H]([C@@H](C)O)C(=O)N[C@@H](C)C(=O)N[C@@H]([C@@H](C)O)C(=O)N1)[C@@H](C)O)C(=O)N1CCC[C@H]1C(=O)N[C@@H](CO)C(=O)N[C@@H](CO)C(=O)N[C@H](C(=O)N1CCC[C@H]1C(=O)N[C@H](C(=O)NCC(=O)N[C@@H](CO)C(=O)N[C@@H](CC(N)=O)C(=O)N[C@H](C(=O)N[C@@H](Cc1ccc(O)cc1)C(N)=O)[C@@H](C)O)C(C)C)[C@@H](C)O
notes: also called compound 72
B2: N^ε1-[2-[2-[2-[[(4S)-4-carboxy-4-(19-carboxynonadecanoylamino)butanoyl]amino]ethoxy]ethoxy]acetyl]-[Arg14,Arg17,Pro21,Pro27,Pro31]-h-amylin (peptide)
peptide: K([AEEA-γGlu-C20 diacid])CNTATCATQRLARFLRHSSPNFGAIPSSTPVGSNTY-NH2
modifications: disulfide 2-7; N-terminus assumed
SMILES: CC[C@H](C)[C@H](NC(=O)[C@H](C)NC(=O)CNC(=O)[C@H](Cc1ccccc1)NC(=O)[C@H](CC(N)=O)NC(=O)[C@@H]1CCCN1C(=O)[C@H](CO)NC(=O)[C@H](CO)NC(=O)[C@H](Cc1c[nH]cn1)NC(=O)[C@H](CCCNC(=N)N)NC(=O)[C@H](CC(C)C)NC(=O)[C@H](Cc1ccccc1)NC(=O)[C@H](CCCNC(=N)N)NC(=O)[C@H](C)NC(=O)[C@H](CC(C)C)NC(=O)[C@H](CCCNC(=N)N)NC(=O)[C@H](CCC(N)=O)NC(=O)[C@@H](NC(=O)[C@H](C)NC(=O)[C@@H]1CSSC[C@H](NC(=O)[C@@H](N)CCCCNC(=O)COCCOCCNC(=O)CC[C@H](NC(=O)CCCCCCCCCCCCCCCCCCC(=O)O)C(=O)O)C(=O)N[C@@H](CC(N)=O)C(=O)N[C@@H]([C@@H](C)O)C(=O)N[C@@H](C)C(=O)N[C@@H]([C@@H](C)O)C(=O)N1)[C@@H](C)O)C(=O)N1CCC[C@H]1C(=O)N[C@@H](CO)C(=O)N[C@@H](CO)C(=O)N[C@H](C(=O)N1CCC[C@H]1C(=O)N[C@H](C(=O)NCC(=O)N[C@@H](CO)C(=O)N[C@@H](CC(N)=O)C(=O)N[C@H](C(=O)N[C@@H](Cc1ccc(O)cc1)C(N)=O)[C@@H](C)O)C(C)C)[C@@H](C)O
notes: also called compound 64
B3: N^ε1-[2-[2-[2-[[(4S)-4-carboxy-4-(19-carboxynonadecanoylamino)butanoyl]amino]ethoxy]ethoxy]acetyl]-[Arg14,Arg17,Pro21,Pro27]-h-amylin (peptide)
peptide: K([AEEA-γGlu-C20 diacid])CNTATCATQRLARFLRHSSPNFGAIPSSTNVGSNTY-NH2
modifications: disulfide 2-7; N-terminus assumed
SMILES: CC[C@H](C)[C@H](NC(=O)[C@H](C)NC(=O)CNC(=O)[C@H](Cc1ccccc1)NC(=O)[C@H](CC(N)=O)NC(=O)[C@@H]1CCCN1C(=O)[C@H](CO)NC(=O)[C@H](CO)NC(=O)[C@H](Cc1c[nH]cn1)NC(=O)[C@H](CCCNC(=N)N)NC(=O)[C@H](CC(C)C)NC(=O)[C@H](Cc1ccccc1)NC(=O)[C@H](CCCNC(=N)N)NC(=O)[C@H](C)NC(=O)[C@H](CC(C)C)NC(=O)[C@H](CCCNC(=N)N)NC(=O)[C@H](CCC(N)=O)NC(=O)[C@@H](NC(=O)[C@H](C)NC(=O)[C@@H]1CSSC[C@H](NC(=O)[C@@H](N)CCCCNC(=O)COCCOCCNC(=O)CC[C@H](NC(=O)CCCCCCCCCCCCCCCCCCC(=O)O)C(=O)O)C(=O)N[C@@H](CC(N)=O)C(=O)N[C@@H]([C@@H](C)O)C(=O)N[C@@H](C)C(=O)N[C@@H]([C@@H](C)O)C(=O)N1)[C@@H](C)O)C(=O)N1CCC[C@H]1C(=O)N[C@@H](CO)C(=O)N[C@@H](CO)C(=O)N[C@H](C(=O)N[C@@H](CC(N)=O)C(=O)N[C@H](C(=O)NCC(=O)N[C@@H](CO)C(=O)N[C@@H](CC(N)=O)C(=O)N[C@H](C(=O)N[C@@H](Cc1ccc(O)cc1)C(N)=O)[C@@H](C)O)C(C)C)[C@@H](C)O
notes: also called compound 82
B4: N^ε1-[2-[2-[2-[[(4S)-4-carboxy-4-(19-carboxynonadecanoylamino)butanoyl]amino]ethoxy]ethoxy]acetyl]-[Arg17,Pro21,Pro27,Arg34]-h-amylin (peptide)
peptide: K([AEEA-γGlu-C20 diacid])CNTATCATQRLANFLRHSSPNFGAIPSSTNVGRNTY-NH2
modifications: disulfide 2-7; N-terminus assumed
SMILES: CC[C@H](C)[C@H](NC(=O)[C@H](C)NC(=O)CNC(=O)[C@H](Cc1ccccc1)NC(=O)[C@H](CC(N)=O)NC(=O)[C@@H]1CCCN1C(=O)[C@H](CO)NC(=O)[C@H](CO)NC(=O)[C@H](Cc1c[nH]cn1)NC(=O)[C@H](CCCNC(=N)N)NC(=O)[C@H](CC(C)C)NC(=O)[C@H](Cc1ccccc1)NC(=O)[C@H](CC(N)=O)NC(=O)[C@H](C)NC(=O)[C@H](CC(C)C)NC(=O)[C@H](CCCNC(=N)N)NC(=O)[C@H](CCC(N)=O)NC(=O)[C@@H](NC(=O)[C@H](C)NC(=O)[C@@H]1CSSC[C@H](NC(=O)[C@@H](N)CCCCNC(=O)COCCOCCNC(=O)CC[C@H](NC(=O)CCCCCCCCCCCCCCCCCCC(=O)O)C(=O)O)C(=O)N[C@@H](CC(N)=O)C(=O)N[C@@H]([C@@H](C)O)C(=O)N[C@@H](C)C(=O)N[C@@H]([C@@H](C)O)C(=O)N1)[C@@H](C)O)C(=O)N1CCC[C@H]1C(=O)N[C@@H](CO)C(=O)N[C@@H](CO)C(=O)N[C@H](C(=O)N[C@@H](CC(N)=O)C(=O)N[C@H](C(=O)NCC(=O)N[C@@H](CCCNC(=N)N)C(=O)N[C@@H](CC(N)=O)C(=O)N[C@H](C(=O)N[C@@H](Cc1ccc(O)cc1)C(N)=O)[C@@H](C)O)C(C)C)[C@@H](C)O
notes: also called compound 78

Columns and labels:
[1] = molecular target: T1, human calcitonin receptor; assay: IC50 at hCTR divided by IC50 at hAmylin-R (SPA competition assays V and VII)
Method: The resulting pellet was resuspended, homogenized and centrifuged (20.000 rpm, 15 min) in a buffer containing 20 mM Na-HEPES and 0.1 mM EDTA (pH 7.4, buffer 2). The resulting pellet was resuspended in buffer 2 and protein concentration was measured (BCA protein Assay, Pierce). The homogenate was kept cold during the whole procedure. The membranes were kept at −80° C. until use. The assay was performed in a 384 well Optiplate (PerkinElmer) in a total volume of 40 ul. Membranes were mixed with SPA beads. Final concentration of membranes 35 ng/μL final and SPA beads was 0.05 mg/well. Test-compounds were dissolved in DMSO and further diluted in assay buffer (50 mM Hepes, pH 7.4, 1 mM CaCl2, 5 mM MgCl₂, 0.1% OA and 0.02% Tween20). […] The final mixture was incubated with shaking at 400 rpm for 120 min at 25° C. prior to centrifugation (1500 rpm, 10 min). Samples were analyzed on TopCounter™ (Packard). The IC₅₀ was calculated using (one site binding competition analysis) GraphPad Prism5 as a measure of receptor affinity.
Membranes were prepared in the following way; the cells were rinsed with PBS and incubated with Versene for approximately 5 min before harvesting. The cells were flushed with PBS and the cell-suspension was centrifuged for 5 min at 1000 rpm. Cells were homogenized (Ultrathurrax) in a buffer containing 20 mM Na-HEPES and 10 mM EDTA (pH 7.4) and centrifuged at 20.000 rpm for 15 min. The resulting pellet was resuspended, homogenized and centrifuged (20.000 rpm, 15 min) in a buffer containing 20 mM Na-HEPES and 0.1 mM EDTA (pH 7.4, buffer 2). The resulting pellet was resuspended in buffer 2 and protein concentration was measured (BCA protein Assay, Pierce). The homogenate was kept cold during the whole procedure. The membranes were kept at −80° C. until use. Assay was performed in a 384 well Optiplate (PerkinElmer) in a total volume of 40 ul. Membranes were mixed with SPA beads.

[2] = molecular target: T1, human calcitonin receptor; assay: SPA competition vs 125I-calcitonin, membranes of BHK cells with human calcitonin receptor (Assay VII)
Method: Membranes were prepared in the following way; the cells were rinsed with PBS and incubated with Versene for approximately 5 min before harvesting. The cells were flushed with PBS and the cell-suspension was centrifuged for 5 min at 1000 rpm. Cells were homogenized (Ultrathurrax) in a buffer containing 20 mM Na-HEPES and 10 mM EDTA (pH 7.4) and centrifuged at 20.000 rpm for 15 min. The resulting pellet was resuspended, homogenized and centrifuged (20.000 rpm, 15 min) in a buffer containing 20 mM Na-HEPES and 0.1 mM EDTA (pH 7.4, buffer 2). The resulting pellet was resuspended in buffer 2 and protein concentration was measured (BCA protein Assay, Pierce). The homogenate was kept cold during the whole procedure. The membranes were kept at −80° C. until use. Assay was performed in a 384 well Optiplate (PerkinElmer) in a total volume of 40 ul. Membranes were mixed with SPA beads. Final concentration of membranes 35 ng/μL final and Final concentration of SPA beads was 0.05 mg/well. Test-compounds were dissolved in DMSO and further diluted in assay buffer (50 mM Hepes, pH 7.4, 1 mM CaCl2, 5 mM MgCl₂, 0.1% OA and 0.02% Tween20). […] The final mixture was incubated for 120 min with shaking at 400 rpm at 25° C. prior to centrifugation (1500 rpm, 10 min). Samples were analyzed on TopCounter™ (Packard). The […] was calculated using (one site binding competition analysis) GraphPad Prism5 as a measure of receptor affinity.

Row | Binder | Ratio hCT/hAmylin binding [1] | IC50 [2] [nM]
1 | B1 | 247 | 42.4
2 | B2 | 126 | 56
3 | B3 | 140 | 88.8
4 | B4 | 60.7 | 36.5

Source: patent publication US20140087995A1 (published 2014)
